# Results reported in the RNAGym collection of RNA variant scans (doi:10.1093/nar/gkz1192).
# B1: CPEB3 Ribozyme (parent)
# chain: UAACAGGGGGCCACAGCAGAAGCGUUCACGUCGCAGCCCCUGUCAGAUUCUGGUGAAUCUGCGAAUUCUGCUGUAUAUCUC
# Variants of: B1
# Assay: self-cleavage, relative activity (ratio to wild type); higher = more cleavage; in vitro, sequencing
# In short: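 Barcoded CPEB3 ribozyme mutants, produced by rounds of error-prone PCR, self-cleaved while being transcribed with T7 RNA polymerase for 5 hours at 37°C and during a subsequent 15 min DNase I step before EDTA was added. Sequencing of template-switched cDNA on Illumina gave cleaved and total reads, and DNA sequencing assigned barcodes to variants. Each variant's relative activity is its cleaved/total read fraction divided by the unmutated ribozyme's fraction, averaged across three batches. A variant needed a minimum of 5 reads.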
row,Variant,self-cleavage
1,UAACAGGGGGUCACAGCAGAAGCGUUCACGACGCAGCCCCUGUCAGAUUCUGGUGAAUCUGCGAAUUCUGCUGUAUAUCUC [C11U U31A],0.32
2,UAACAGGGGGUCACAGCAGAAGCGUUCACGUCGCAGCCCCUGUCAGAUUCUGGUGAAUCUCCGAAUUCUGCUGUAUAUCUC [C11U G61C],0.11
3,UAACAGGGGGUCACAGCAUAAGCGUUCACGUCGCAGCCCCUGUCAGAUUCUGGUGAAUCUGCGAAUUCUGCUGUAUAUCUC [C11U G19U],0.07
4,UAACAGGGGGUCACAGCAGAAGCGUUCACGUCGCAGCCCCUGUCAGAUUCUGGUGAAUCUGCGAAUACUGCUGUAUAUCUC [C11U U67A],0.36
5,UAACAGGGGGUCACAGCAGAAGCGUUCACGUCGCAGCCCCUGUCAGAUUCUGGUGAAUCUGCGAAUCCUGCUGUAUAUCUC [C11U U67C],0.18
6,UAACAGGGGGUCACAGCAGAAGCGUUCACGUCGCAGCCCCUGUCAGAUUCUGGUGAAUCUGCGAAUGCUGCUGUAUAUCUC [C11U U67G],0.18
7,UAACAGGGGGUCACAGCAGAAGCGUUCACGUCGCAGCCCCUGUCAGACUCUGGUGAAUCUGCGAAUUCUGCUGUAUAUCUC [C11U U48C],0.31
8,UAACAGGGGGUCACAGCAGAAGCGUUCACGUCGCAGCCCCUGUCAGAAUCUGGUGAAUCUGCGAAUUCUGCUGUAUAUCUC [C11U U48A],0.24
9,UAACAGGGGGUCACAGCAGAAGCGUUCACGUCGCAGCCCCUGUCAGAUUCUGGUGAAUCUGCGAAUUCAGCUGUAUAUCUC [C11U U69A],0.24
10,UAACAGGGGGUCACAGCAGAAGCGUUCACGUCGCAGCCCCUGUCAGAUUCUGGUGAAUCUGCGAAUUCUGCAGUAUAUCUC [C11U U72A],0.42
11,UAACAGGGGGUCACAGCAGAAGCGUUCACGUCGCAGCCCCUGUCAGAUUCUGGUGAAUCUGCGAAUUCUGCCGUAUAUCUC [C11U U72C],0.64
12,UAACAGGGGGUCACAGCAGAAGCGUUCACGUCGCAGCCCCUGUCAGAUUCUGGUGAAUCUGCGAAUUCUGCGGUAUAUCUC [C11U U72G],0.37
13,UAACAGGGGGCAACAGCAGAGGCGUUCACGUCGCAGCCCCUGUCAGAUUCUGGUGAAUCUGCGAAUUCUGCUGUAUAUCUC [C12A A21G],0.73
14,UAACAGGGGGUCACAGCAGAAGCGUUCACGUCGCAGCCCCUGUCAGAUUCUGGUGAAUCUGCGAACUCUGCUGUAUAUCUC [C11U U66C],0.2
15,UAACAGGGGGUCACAGCAGAAGCGUUCACGUCGCAGCCCCUGACAGAUUCUGGUGAAUCUGCGAAUUCUGCUGUAUAUCUC [C11U U43A],0.68
16,UAACAGGGGGUCACAGCAGAAGCGUUCACGUCGCAGCCCCUGCCAGAUUCUGGUGAAUCUGCGAAUUCUGCUGUAUAUCUC [C11U U43C],0.35
17,UAACAGGGGGUCACAGCAGAAGCGUUCACGUCGCAGCCCCUGUCAGAUUCUGGUGAAUCUGUGAAUUCUGCUGUAUAUCUC [C11U C62U],0.11

row,Variant,self-cleavage
1,UAACAGGGGGUCACAGCAGAAGCGUUCACGUCGCAGCCCCAGUCAGAUUCUGGUGAAUCUGCGAAUUCUGCUGUAUAUCUC [C11U U41A],0.3
2,UAACAGGGGGUCACAGCAGAAGCGUUCACGUCGCAGCCCCCGUCAGAUUCUGGUGAAUCUGCGAAUUCUGCUGUAUAUCUC [C11U U41C],0.51
3,UAACAGGGGGUCACAGCAGAAGCGUUCACGUCGCAGCCCCUGUCAGAUUCUGGUGAAUCUGCGAAUUCUGCUGUAUAUCCC [C11U U80C],0.45
4,UAACAGGGGGUCACAGCAGAAGCGUUCACGUCGCAGCCCCUGUCAGAUUCUGGUGAAUCUGCGAAUUCUGCUGUAUAUCAC [C11U U80A],0.31
5,UAACAGGGGGCAACAGCAGAAGCGUUCACGUCGCAGCCCCUGUCAGAUUCUGGUGAAUCUGCGAAUUCUGCUGUAUAUCUC [C12A],1.15
6,UAACAGGGGGCAGCAGCAGAAGCGUUCACGUCGCAGCCCCUGUCAGAUUCUGGUGAAUCUGCGAAUUCUGCUGUAUAUCUC [C12A A13G],0.89
7,UAACAGGGGGCACCAGCAGAAGCGUUCACGUCGCAGCCCCUGUCAGAUUCUGGUGAAUCUGCGAAUUCUGCUGUAUAUCUC [C12A A13C],1.23
8,UAACAGGGGGCAUCAGCAGAAGCGUUCACGUCGCAGCCCCUGUCAGAUUCUGGUGAAUCUGCGAAUUCUGCUGUAUAUCUC [C12A A13U],1.25
9,UAACAGGGGGUCACAGCAGAAGCGAUCACGUCGCAGCCCCUGUCAGAUUCUGGUGAAUCUGCGAAUUCUGCUGUAUAUCUC [C11U U25A],0.38
10,UAACAGGGGGUCACAGCAGAAGCGCUCACGUCGCAGCCCCUGUCAGAUUCUGGUGAAUCUGCGAAUUCUGCUGUAUAUCUC [C11U U25C],0.22
11,UAACAGGGGGUCACAGCAGAAGCGUUCACGUCGCAGCCCCUGUCAGAUUCUGGUGAAUCCGCGAAUUCUGCUGUAUAUCUC [C11U U60C],0.14
12,UAACAGGGGGUCACAGCAGAAGCGUUCACGUCGCAGCCCCUGUCAGAUACUGGUGAAUCUGCGAAUUCUGCUGUAUAUCUC [C11U U49A],0.32
13,UAACAGGGGGUCACAGCAGAAGCGUUCACGUCGCAGCCCCUGUCAGAUCCUGGUGAAUCUGCGAAUUCUGCUGUAUAUCUC [C11U U49C],0.24
14,UAACAGGGGGCAACGGCAGAAGCGUUCACGUCGCAGCCCCUGUCAGAUUCUGGUGAAUCUGCGAAUUCUGCUGUAUAUCUC [C12A A15G],1.19
15,UAACAGGGGGCAACCGCAGAAGCGUUCACGUCGCAGCCCCUGUCAGAUUCUGGUGAAUCUGCGAAUUCUGCUGUAUAUCUC [C12A A15C],1.17
16,UAACAGGGGGUCACAGCAGAAGCGUUCACGUCGCAGCCCCUGUCAGAUUUUGGUGAAUCUGCGAAUUCUGCUGUAUAUCUC [C11U C50U],0.4
17,UAACAGGGGGUCACAGCAGAAGCGUUCACGUCGCAGCCCCUGUCAGAUUCUGGUGAAUCUGCGAAUUCUGCUGUACAUCUC [C11U U76C],0.43
